From patent US4285932A, “Enzyme derivatives for use in the treatment of venous thrombosis” (Beecham Group Limited, priority 1978, dated 1981)

Key:
[1] = system: streptokinase-human plasminogen activator complex; test: Residual enzyme activity of acylated streptokinase-human plasminogen activator complex; assay type: biochemical; details: freeze-dried powder
Procedure: (§1) The time for which the reaction is allowed to proceed depends upon the blocking reagent employed, the temperature at which the reaction is carried out and the enzyme selected for blocking. The optimum time period for any particular circumstances may be selected by following the decrease in enzymic activity by incubating aliquots with a chromogenic or fluorogenic substrate.

[2] = system: Porcine Plasmin; test: Deacylation (hydrolysis) of active-site blocked porcine plasmin, pseudo-first order rate constant followed by regain of activity on chromogenic substrate; assay type: biochemical
Procedure: The pseudo-first order rate constant is determined by hydrolysing the enzyme derivative under physiological conditions i.e. in isotonic aqueous media at pH 7.4 and at 37° C. At regular intervals aliquots are withdrawn and incubated with a chromogenic or fluorogenic protease substrate such as S-2251 (H-D-Val-Leu-Lys-p-nitroanilide 2HCl) and the rate of conversion of the substrate measured.
The hydrolysis is followed until such time as the rate of conversion of substrate reaches a maximum. The rate constant k is then calculated by plotting: […]
loge (1-^At /Amax) against t
where Amax the maximum rate at which an aliquot converts substrate and At is the rate at which an aliquot converts substrate at time t.

[3] = system: Porcine Plasmin; test: Residual enzyme activity of blocked porcine plasmin versus original enzyme; assay type: biochemical; details: after acylation and dialysis
Procedure: as §1

[4] = system: radio-labelled clot in the inferior vena cava; test: In vivo fibrinolytic enzyme test: radio-labelled clot in the inferior vena cava of the rabbit; set-up: species or system New Zealand white rabbit; details: systemic infusion, blood radioactivity at least twice background within six hours without death
Description: The agent under test is introduced into the bloodstream at a point where it must pass through the heart to ensure that the agent will be thoroughly mixed with venous blood. Non-specific lytic enzymes attack blood proteins and cause death before any lysis of the clot is observed. Enzymes which have a degree of specificity for fibrin lyse the clot at a dose lower than the lethal dose.
A New Zealand white rabbit (2.5-3.5 kg) is anaesthetised and three cannulas are inserted into the anterior facial vein (referred to as cannula 1 in this description), the left carotid artery (referred to as cannula 2) and the left external iliac vein (referred to as cannula 3). […] The quantity of 50 μl is determined arbitrarily, and represents an amount between the minimum quantity which can be measured accurately and the maximum quantity which can be injected without excessive disturbance of physiological conditions within the isolated vein portion. […] The first swab is transferred to a counting vial, and the level of γ -radiation is measured. […]
Constriction is required in order to prevent dislodgement of the clot. […] A second blood sample (P10) is withdrawn into citrate buffer as above and counted as previously described ten minutes after Po This count is made to check that no additional radio-activity has been washed into the bloodstream, thereby giving an indication of the stability of the clot. […]

With “p-Anisoyl Streptokinase-Human Plasminogen Activator Complex [Example 26]” the “remaining share of the original enzyme activity” value [1] was “less than 5%”.

B1: Trans-Cinnamoyl Porcine Plasmin (protein, UniProt P06867 20-579; P06867 580-809, looked up)
Plasmin heavy chain A: DSLDDYVNTQGAFLFSLSRKQVAARSVEECAAKCEAETNFICRAFQYHSKDQQCVVMAENSKTSPIARMRDVVLFEKRIYLSECKTGNGKNYRGTTSKTKSGVICQKWSVSSPHIPKYSPEKFPLAGLEENYCRNPDNDEKGPWCYTTDPETRFDYCDIPECEDECMHCSGEHYEGKISKTMSGIECQSWGSQSPHAHGYLPSKFPNKNLKMNYCRNPDGEPRPWCFTTDPNKRWEFCDIPRCTTPPPTSGPTYQCLKGRGENYRGTVSVTASGHTCQRWSAQSPHKHNRTPENFPCKNLEENYCRNPDGETAPWCYTTDSEVRWDYCKIPSCGSSTTSTEYLDAPVPPEQTPVAQDCYRGNGESYRGTSSTTITGRKCQSWVSMTPHRHEKTPGNFPNAGLTMNYCRNPDADKSPWCYTTDPRVRWEYCNLKKCSETEQQVTNFPAIAQVPSVEDLSEDCMFGNGKRYRGKRATTVAGVPCQEWAAQEPHRHSIFTPETNPRAGLEKNYCRNPDGDDNGPWCYTTNPQKLFDYCDVPQCVTSSFDCGKPKVEPKKCPAR
Plasmin light chain B: VVGGCVSIPHSWPWQISLRHRYGGHFCGGTLISPEWVLTAKHCLEKSSSPSSYKVILGAHEEYHLGEGVQEIDVSKLFKEPSEADIALLKLSSPAIITDKVIPACLPTPNYVVADRTACYITGWGETKGTYGAGLLKEARLPVIENKVCNRYEYLGGKVSPNELCAGHLAGGIDSCQGDSGGPLVCFEKDKYILQGVTSWGLGCALPNKPGVYVRVSRFVTWIEEIMRRN
modifications: plasmin trans-cinnamoyl acylated active site
notes: porcine plasmin acylated with p-amidinophenyl transcinnamate
For B1, the “Deacylation rate, Porcine Plasmin K sec^-1 × 10^4” value ([2]; active site serine substituted porcine plasmin, pH 7.4, 37° C.) was 4.20 sec^-1 × 10^4, the time for reactivation ([2]; deacylation conditions) was “two” and the “activity of the derivative relative to the original enzyme” value [3] was “less than 0.5%”.

B2: human plasmin: free proteolytic enzyme, in vivo fibrinolytic enzyme (protein, UniProt P00747 20-580; P00747 581-810, looked up)
Plasmin heavy chain A: EPLDDYVNTQGASLFSVTKKQLGAGSIEECAAKCEEDEEFTCRAFQYHSKEQQCVIMAENRKSSIIIRMRDVVLFEKKVYLSECKTGNGKNYRGTMSKTKNGITCQKWSSTSPHRPRFSPATHPSEGLEENYCRNPDNDPQGPWCYTTDPEKRYDYCDILECEEECMHCSGENYDGKISKTMSGLECQAWDSQSPHAHGYIPSKFPNKNLKKNYCRNPDRELRPWCFTTDPNKRWELCDIPRCTTPPPSSGPTYQCLKGTGENYRGNVAVTVSGHTCQHWSAQTPHTHNRTPENFPCKNLDENYCRNPDGKRAPWCHTTNSQVRWEYCKIPSCDSSPVSTEQLAPTAPPELTPVVQDCYHGDGQSYRGTSSTTTTGKKCQSWSSMTPHRHQKTPENYPNAGLTMNYCRNPDADKGPWCFTTDPSVRWEYCNLKKCSGTEASVVAPPPVVLLPDVETPSEEDCMFGNGKGYRGKRATTVTGTPCQDWAAQEPHRHSIFTPETNPRAGLEKNYCRNPDGDVGGPWCYTTNPRKLYDYCDVPQCAAPSFDCGKPQVEPKKCPGR
Plasmin light chain B: VVGGCVAHPHSWPWQVSLRTRFGMHFCGGTLISPEWVLTAAHCLEKSPRPSSYKVILGAHQEVNLEPHVQEIEVSRLFLEPTRKDIALLKLSSPAVITDKVIPACLPSPNYVVADRTECFITGWGETQGTFGAGLLKEAQLPVIENKVCNRYEFLNGRVQSTELCAGHLAGGTDSCQGDSGGPLVCFEKDKYILQGVTSWGLGCARPNKPGVYVRVSRFVTWIEGVMRNN
modifications: Plasmin
In the case of B2, the “dose giving a positive result in the in vivo fibrinolytic test” value [4] is reported as 1×10^-7 to 5×10^-6 mol of active catalytic sites per kg of test animal.
